Source: FireProtDB (doi:10.1016/0022-2836(92)90564-z)
Several values for one entry are separate records, joined by “and”; a condition that tells them apart may be missing. Equal values may be shown once.

B1: Ribonuclease, P00648 (parent)
chain: MMKMEGIALKKRLSWISVCLLVLVSAAGMLFSTAAKTETSSHKAHTEAQVINTFDGVADYLQTYHKLPDNYITKSEAQALGWVASKGNLADVAPGKSIGGDIFSNREGKLPGKSGRTWREADINYTSGFRNSDRILYSSDWLIYKTTDHYQTFTKIR

Variants of: B1
Settings: Bacillus amyloliquefaciens; pH 6.3; 25 °C; Urea; Fluorescence; MES 1.00 M; NaCl 613 mM; reversible: yes; structure 1BNI; whole UniProt chain shown

Variant	ddG of mutation (higher = less stable)
MMKMEGIALKKRLSWISVCLLVLVSAAGMLFSTAAKTETSSHKAHTEAQVINTFDGVADYLQTYHKLPDNYITKSEAQALGWVASKGNLADVAPGKSIGGDIFSNREGKLPGKSGRTWREADINYTSGFRNSDRILYSSDWLAYKTTDHYQTFTKIR [I143A]	9.92 kJ/mol
MMKMEGIALKKRLSWISVCLLVLVSAAGMLFSTAAKTETSSHKAHTEAQVINTFDGVADYLQTYHKLPDNYITKSEAQALGWVASKGDLADVAPGKSIGGDIFSNREGKLPGKSGRTWREADINYTSGFRNSDRILYSSDWLIYKTTDHYQTFTKIR [N88D]	10.5 kJ/mol
MMKMEGIALKKRLSWISVCLLVLVSAAGMLFSTAAKTETSSHKAHTEAQVINTFDGVADYLQTYHKLPDNYITKSEAQALGWVASKGNLADVAPGKSIGGDIFSNREGKLPGKSGRTWREADIAYTSGFRNSDRILYSSDWLIYKTTDHYQTFTKIR [N124A]	7.87 kJ/mol
MMKMEGIALKKRLSWISVCLLVLVSAAGMLFSTAAKTETSSHKAHTEAQVINTFDGVADYLQTYHKLPDNYITKSEAQALGWVASKGNLADVAPGKSVGGDIFSNREGKLPGKSGRTWREADINYTSGFRNSDRILYSSDWLIYKTTDHYQTFTKIR [I98V]	7.74 kJ/mol
MMKMEGIALKKRLSWISVCLLVLVSAAGMLFSTAAKTETSSHKAHTEAQVINTFDGVADYLQTYHKLPDNYITKSEAQALGWVASKGNLADVAPGKSIGGDIFSNREGKLPGKSGRTWREADINYTSGFRNSDRILYSADWLIYKTTDHYQTFTKIR [S139A]	11.5 kJ/mol
MMKMEGIALKKRLSWISVCLLVLVSAAGMLFSTAAKTETSSHKAHTEAQVINTFDGVADYLQTYHKLPDNYITKSEAQALGWAASKGNLADVAPGKSIGGDIFSNREGKLPGKSGRTWREADINYTSGFRNSDRILYSSDWLIYKTTDHYQTFTKIR [V83A]	5.61 kJ/mol
MMKMEGIALKKRLSWISVCLLVLVSAAGMLFSTAAKTETSSHKAHTEAQVINTFDGVADYLQTYHKLPDNYITKSEAQALGWVASKGNLADVAPGKSIGGDIFSNREGKLPGKSGRTWREADINYTSGFRNSDRILYSSDWLIYKTTDHYQVFTKIR [T152V]	9.41 kJ/mol
MMKMEGIALKKRLSWISVCLLVLVSAAGMLFSTAAKTETSSHKAHTEAQVINTFDGVADYLQTYHKLPDNYITKSEAQALGWVASKGNLADVAPGKSIGGDTFSNREGKLPGKSGRTWREADINYTSGFRNSDRILYSSDWLIYKTTDHYQTFTKIR [I102T]	4.18 kJ/mol
MMKMEGIALKKRLSWISVCLLVLVSAAGMLFSTAAKTETSSHKAHTEAQVINTFDGVADYLQTYHKLPDNYITKSEAQALGWVASKGNLADVAPGKSIGGDAFSNREGKLPGKSGRTWREADINYTSGFRNSDRILYSSDWLIYKTTDHYQTFTKIR [I102A]	5.36 kJ/mol
MMKMEGIALKKRLSWISVCLLVLVSAAGMLFSTAAKTETSSHKAHTEAQVINTFDGVADYLQTYHKLPDNYITKSGAQALGWVASKGNLADVAPGKSIGGDIFSNREGKLPGKSGRTWREADINYTSGFRNSDRILYSSDWLIYKTTDHYQTFTKIR [E76G]	7.95 kJ/mol
MMKMEGIALKKRLSWISVCLLVLVSAAGMLFSTAAKTETSSHKAHTEAQVIATFDGVADYLQTYHKLPDNYITKSEAQALGWVASKGNLADVAPGKSIGGDIFSNREGKLPGKSGRTWREADINYTSGFRNSDRILYSSDWLIYKTTDHYQTFTKIR [N52A]	8.62 kJ/mol
MMKMEGIALKKRLSWISVCLLVLVSAAGMLFSTAAKTETSSHKAHTEAQVINTFDGVADYLQTYHKLPDNYITKSEAQALGWVASKGNLADVAPGKSIGGDIFSNREGKLPGKSGRTWREADANYTSGFRNSDRILYSSDWLIYKTTDHYQTFTKIR [I123A]	8.54 kJ/mol and 4.85 kJ/mol
MMKMEGIALKKRLSWISVCLLVLVSAAGMLFSTAAKTETSSHKAHTEAQVINTFDGVADYLQTYHKLPDNYITKSEAQALGWVASKGNLADVAPGKSIGGDIFSNREGKLPGKSGRTWREADVNYTSGFRNSDRILYSSDWLIYKTTDHYQTFTKIR [I123V]	3.68 kJ/mol
MMKMEGIALKKRLSWISVCLLVLVSAAGMLFSTAAKTETSSHKAHTEAQVINTFDGVADYLQTYHKLPDNYITKSEAQALGWVASKGNLADVAPGKSIGGDIFSNREGKLPGKSGRTWREADINYTSGFRNSDRALYSSDWLIYKTTDHYQTFTKIR [I135A]	11.5 kJ/mol
MMKMEGIALKKRLSWISVCLLVLVSAAGMLFSTAAKTETSSHKAHTEAQVINTFDGVADYLQTYHKLPDNYVTKSEAQALGWVASKGNLADVAPGKSIGGDIFSNREGKLPGKSGRTWREADINYTSGFRNSDRILYSSDWLIYKTTDHYQTFTKIR [I72V]	4.94 kJ/mol
MMKMEGIALKKRLSWISVCLLVLVSAAGMLFSTAAKTETSSHKAHTEAQVINTFDGVADYLQTYHKLPDNYITKSEAQALGWVASKGNLADAAPGKSIGGDIFSNREGKLPGKSGRTWREADINYTSGFRNSDRILYSSDWLIYKTTDHYQTFTKIR [V92A]	7.66 kJ/mol

Variant	ddG of mutation (higher = less stable)
MMKMEGIALKKRLSWISVCLLVLVSAAGMLFSTAAKTETSSHKAHTEAQVINTFDGVADYLQTYHKLPDNYITKSEAQALGWVASKGNLADTAPGKSIGGDIFSNREGKLPGKSGRTWREADINYTSGFRNSDRILYSSDWLIYKTTDHYQTFTKIR [V92T]	10.2 kJ/mol
MMKMEGIALKKRLSWISVCLLVLVSAAGMLFSTAAKTETSSHKAHTEAQVINTFDGVADYLQTYHKLPDNYITKSEAQALGWVASKGNLADVAPGKSIGGDIFSNREGKLPGKSGRTWREADINYTSGFRNSDRITYSSDWLIYKTTDHYQTFTKIR [L136T]	12.1 kJ/mol and 10.7 kJ/mol
MMKMEGIALKKRLSWISVCLLVLVSAAGMLFSTAAKTETSSHKAHTEAQVINTFDGVADYLQTYHKLPDNYITKSEAQALGWVASKGNLADVAPGKSIGGDIFSNREGKLPGKSGRTWREADINYTSGFRNSDRIVYSSDWLIYKTTDHYQTFTKIR [L136V]	0.126 kJ/mol
MMKMEGIALKKRLSWISVCLLVLVSAAGMLFSTAAKTETSSHKAHTEAQVINTFDGVADYLQTYHKLPDNYITKSEAQALGWVASKGNLADVAPGKSIGGDIFSAREGKLPGKSGRTWREADINYTSGFRNSDRILYSSDWLIYKTTDHYQTFTKIR [N105A]	9.08 kJ/mol
MMKMEGIALKKRLSWISVCLLVLVSAAGMLFSTAAKTETSSHKAHTEAQVINTFDGTADYLQTYHKLPDNYITKSEAQALGWVASKGNLADVAPGKSIGGDIFSNREGKLPGKSGRTWREADINYTSGFRNSDRILYSSDWLIYKTTDHYQTFTKIR [V57T]	10.8 kJ/mol
MMKMEGIALKKRLSWISVCLLVLVSAAGMLFSTAAKTETSSHKAHTEAQVINTFDGAADYLQTYHKLPDNYITKSEAQALGWVASKGNLADVAPGKSIGGDIFSNREGKLPGKSGRTWREADINYTSGFRNSDRILYSSDWLIYKTTDHYQTFTKIR [V57A]	15.2 kJ/mol
MMKMEGIALKKRLSWISVCLLVLVSAAGMLFSTAAKTETSSHKAHTEAQVINTFDGVADYLQTYHKLPDNYITKSEAQALGWVASKGNLADVAPGKSIGGDIFSNREGKLPGKSGRTWREADINYTSGFRNSDRILYASDWLIYKTTDHYQTFTKIR [S138A]	8.08 kJ/mol
MMKMEGIALKKRLSWISVCLLVLVSAAGMLFSTAAKTETSSHKAHTEAQVINTFDGVADYLQTYHKLPDNYITKSEAQALGWVASKGNLADVAPGKSIGGDIFSNREGRLPGKSGRTWREADINYTSGFRNSDRILYSSDWLIYKTTDHYQTFTKIR [K109R]	1.8 kJ/mol
MMKMEGIALKKRLSWISVCLLVLVSAAGMLFSTAAKTETSSHKAHTEAQVINTFDGVADYLQTYHKLPDNYITKSEAQALGWVASKGNLADVAPGKSIGGDIFSNREGKLPGKSGRTWREADINYTSGFRNSDRILYSSDWLIYKTTDHYQTFTKVR [I156V]	3.43 kJ/mol
MMKMEGIALKKRLSWISVCLLVLVSAAGMLFSTAAKTETSSHKAHTEAQVINTFDGVADYLQTYHKLPDNYITKSEAQALGWVASKGNLADVAPGKSIGGDIFSNREGKLPGKSGRTWREADINYTSGFRNSDRILYSSDWLIYKTTDHYQTFTKAR [I156A]	9.29 kJ/mol and 5.86 kJ/mol
MMKMEGIALKKRLSWISVCLLVLVSAAGMLFSTAAKTETSSHKAHTEAQVINTFDGVADYLQTYHKLPDNYITKSEAQALGWVASKGNLADVAPGKSIGGDIFSNREGKLPGKSGRTWREADINYTSGFRASDRILYSSDWLIYKTTDHYQTFTKIR [N131A]	9.37 kJ/mol
MMKMEGIALKKRLSWISVCLLVLVSAAGMLFSTAAKTETSSHKAHTEAQVANTFDGVADYLQTYHKLPDNYITKSEAQALGWVASKGNLADVAPGKSIGGDIFSNREGKLPGKSGRTWREADINYTSGFRNSDRILYSSDWLIYKTTDHYQTFTKIR [I51A]	6.28 kJ/mol and 3.47 kJ/mol
MMKMEGIALKKRLSWISVCLLVLVSAAGMLFSTAAKTETSSHKAHTEAQVVNTFDGVADYLQTYHKLPDNYITKSEAQALGWVASKGNLADVAPGKSIGGDIFSNREGKLPGKSGRTWREADINYTSGFRNSDRILYSSDWLIYKTTDHYQTFTKIR [I51V]	2.8 kJ/mol
MMKMEGIALKKRLSWISVCLLVLVSAAGMLFSTAAKTETSSHKAHTEAQVINTFDGVADYLQTYHKLPDNYITKSEAQALGWVASKGNLADVAPGKSIGGAIFSNREGKLPGKSGRTWREADINYTSGFRNSDRILYSSDWLIYKTTDHYQTFTKIR [D101A]	13 kJ/mol
MMKMEGIALKKRLSWISVCLLVLVSAAGMLFSTAAKTETSSHKAHTEAQVINTFDGVADYLQTYHKLPDNYITKSEAQALGWVASKGNLADVAPGKSIGGNIFSNREGKLPGKSGRTWREADINYTSGFRNSDRILYSSDWLIYKTTDHYQTFTKIR [D101N]	10.1 kJ/mol
